Source: patent US12551573B2, “Compositions and methods for the targeting of PCSK9” (Scribe Therapeutics Inc., priority 2022, dated 2026)
Where two headings read alike, the source gives them in different places.

B1: DOMAIN_11049 (protein, listed as Neophocaena asiaeorientalis)
chain: PQGCAISEDVFVYFSREEWVLLDEDQRLLYRDVMLENFALLASLGIASSRSHLVTQLEQGEEPWMPAQVDMTPATEKEAQK
B2: DOMAIN_11202 (protein)
chain: RQAFLAFGDVTVDFTQKEWRLLSPAQRALYREVTLENYSHLVSLGILHSKPELIRRLEQGEAPWGEERRRRPGPCAGIYAE
modifications: Nomascus leucogenys
B3: DOMAIN_9559 (protein, listed as Mus caroli)
chain: MGLVSFEDIAVYFNLEEWQDLDTAQRTLYRDVMLETYSSLVFLDPCIAKPKLIFNLERGFGPWSLAEASSRSLPGVHNVST
B4: DOMAIN_10359 (protein)
chain: AQGLMAFEDVAVYFSREEWGLLDAAQRALYRRVMLENFTLLASLGLSVSRPHVVIQLECGKEPWVLNGTDVTLARNAQRRP
modifications: Delphinapterus leucas
B5: DOMAIN_11314 (protein, listed as Sus scrofa)
chain: VTFEDVALYFSRDEWRLLDEAQRRLYHDVMLQNFSLISSLGCCCGAEDAESPFQPSMFRDVSQARTLKAASLSQKNHPCEK
B6: DOMAIN_9706 (protein, listed as Octodon degus)
chain: SPVLVSFDDVFVSFTREEWQVLDNAQRALYGDVMLETYRSLVLLGQCITKPEVIFKLEQGVEPWTGGEPHNQSPPDVQEVD
B7: DOMAIN_11312 (protein, listed as Sus scrofa)
chain: ALGSVTFRDVAVFFSQDEWLHLDSAQKTLYQEVMLENYSTLVSLGIPFSMPKVICQLQQGEDPCMVEGEALRDPCLDFKTW
B8: DOMAIN_9716 (protein, listed as Mus caroli)
chain: PKVTVSFEDVSVYFTKTEWKLLDLKQRNLYKQVMLENYSHLVSVGFAFSKPNLVSQLERGEKPWIRDDRMESAARSRAGNR
B9: DOMAIN_10763 (protein, listed as Mustela putorius)
chain: PKVPVSFEDVSVYFTKTEWKLLDVQQRILYKTVMLENYHHLVSLGCLSTKPHLVSWLEQGEGPWTTDIWRTPATAKTQTEG
B10: DOMAIN_9541 (protein, listed as Dipodomys ordii)
chain: SQGLVTFEDVAVYFSLEEWERLNVEQRALYQEVMQGNYGILVSLGYPIPKPDLIFRLEQGEEPWVPDSPHPEEGDIVTGVY
B11: DOMAIN_11071 (protein, listed as Chrysochloris asiatica)
chain: SLEQVSFKDVCVDFTQEEWYLLDPAQKILYRDVILENYSNIVSVGHCGTKPEVIFKIEQGEEPWVLGEGFSSLQHPERNWK
B12: DOMAIN_10974 (protein)
chain: AQMLVTFEEVAVYFTQGQGALLGPAQRALYRDVMQENYEMVTSLGFSLPKPELISRLERGEEPWVPDLQACEKRESLRGAR
modifications: Chelonia mydas
B13: DOMAIN_11321 (protein)
chain: GKELLSFEDVAMYFTREEWGHLNLGQKDLYRDVMLENYRNMVLLGFQFPKPEVICQLENWDEQWILDLPRAGNRKASGSAC
modifications: Nomascus leucogenys
B14: DOMAIN_10807 (protein, listed as Erinaceus europaeus)
chain: SQASVSFKDVTVEFTQDEWRLMSSAQRTLYREVMLENYSHLISMGYCSTKPELIFALEQKDFRESILERESLSTIPPEDFQ
B15: DOMAIN_11097 (protein, listed as Mandrillus leucophaeus)
chain: KEASVAFRDVAVDFTQEEWRLLSPAQRTLHREVMLETYNHLVSLEIPSSKPKLIAQLERGEEPWREERKCSLDLCPESKPE
B16: DOMAIN_11307 (protein, listed as Mandrillus leucophaeus)
chain: MAFEDVAVYFSQEEWGLLDTAQRALYRRVMLDNFALVASLGLSTSRPRVVIQLERGEEPWVPSRTDTILSRNTYRRRNPGS
B17: DOMAIN_10057 (protein, listed as Mus musculus)
chain: MDALTFDDVHVHFTREEWSLLDPSQKRLYKDVMLEIYKNLTAIGYKWKDHNVGEHSQNDRRYGRHERSPAGENHNEYTQCD
B18: DOMAIN_9993 (protein, listed as Rattus norvegicus)
chain: DVVTYEDVHVNFTQEEWALLDPSQKRLYKVVMLETYKNLSAIGYIWEDHTIEQHFQSSRSHGRHKRHRTGEQPSELIQHGK
B19: DOMAIN_9858 (protein, listed as Mesocricetus auratus)
chain: MDAVTYDDVHINFTLEEWALLNPSQKSLYKDVMLDTYRNLTAIGYSWDDHNIEEICQSSRSHRRHLQRHAKINTGEKPYGS
B20: DOMAIN_10241 (protein, listed as Octodon degus)
chain: PTAPVAFSDLTICFSQEEWGWLSPTQKLLYEEVMLENYQNLVSVGLCTRKPHIITLLEKGKDPWIAEPLRKRGGPDPASRY
B21: DOMAIN_10277 (protein, listed as Dipodomys ordii)
chain: SNKLVSFDDVAVEFSWEEWQELDISQRTLYRDVMLETYSMLVSLGHTGPKPQLIVKLEQDEESYMREASDKNFSDVQKMKH
B22: DOMAIN_10573 (protein, listed as Cervus elaphus)
chain: SHTLVTFKDILVNFTREEWKLLDTAQQIMYKDVMLENYRNLVSLGHQLPKPDVILRLEKGEEPWLVEKEIHQETHPDLETP
B23: DOMAIN_9617 (protein, listed as Mesocricetus auratus)
chain: LQDSVTFKDVAVDFSQEEWERLNPAQRSLYRTVVLENYWNLVSVGACVSKSHLISLLEHGKAPWDMRGEVTESTSQDGESV
B24: DOMAIN_13331 (protein, listed as Macaca fascicularis)
chain: FQGSISFKDVTVGFTQEEWQHLDPSQRALYRDVMLENYSNLVSVGYCVHKPEVISRLEQGEEPWRLEEEFPSQSFPVWTAD
B25: DOMAIN_11359 (protein, listed as Sus scrofa)
chain: AQGQVTFEDVAVCFSQEEWGLLDETQRLLYRSVMLETFSLMASLGLTSSRTHDISQLERWGEPFLSASGAMRATRPTGCWH
B26: DOMAIN_10612 (protein)
chain: ALESVTFRDVAVFFSRDEWLHLNPAQRALYREVMLDNYSALLSLGILFSKPKVILQLEQGEDPWMVENGVSQSACLGWESL
modifications: Vicugna pacos

System: HBEGF locus
Type: cell-based, human
[1] = repressor domain in dXR, repression of the HBEGF gene, abundance of domain in library after vs before diphtheria toxin selection
[2] = high-throughput screen of dXR repression of the HBEGF gene, change in abundance of each domain in the library before and after diphtheria toxin selection

| Molecule | Log2 (fold change) [1] | Log2 (fold change) [2] |
| --- | --- | --- |
| B1 | 2.7072 |  |
| B2 | 3.5851 |  |
| B3 | 3.327 |  |
| B4 | 2.9199 |  |
| B5 | 2.9575 |  |
| B6 | 2.821 |  |
| B7 | 3.8532 |  |
| B8 | 2.9009 |  |
| B9 | 2.5924 |  |
| B10 | 2.8442 |  |
| B11 | 3.1268 |  |
| B12 | 2.6444 |  |
| B13 | 2.9718 |  |
| B14 | 3.5237 |  |
| B15 | 3.239 |  |
| B16 | 3.6383 |  |
| B17 | 2.2961 |  |
| B18 | 2.7601 |  |
| B19 | 3.0047 |  |
| B20 | 3.5766 |  |
| B21 |  | 2.8257 |
| B22 | 2.4077 |  |
| B23 | 2.4034 |  |
| B24 |  | 3.5154 |
| B25 | 3.1036 |  |
| B26 | 2.4997 |  |
